Several values for one entry are separate records, joined by “and”; a condition that tells them apart may be missing. Equal values may be shown once.
B1: G3p-N1, N-terminal (N1) domain of gene-3-protein of filamentous bacteriophage M13 (domain or fragment, UniProt P69168 19-104, looked up)
chain: AETVESCLAKPHTENSFTNVWKDDKTLDRYANYEGCLWNATGVVVCTGDETQCYGTWVPIGLAIPENEGGGSEGGGSEGGGSEGGG
notes: Gene-3-protein (G3p, minor coat protein), filamentous bacteriophage M13, N1 domain; also called G3p-sN1
B2: TolAIII (TolA domain III, residues 296-421), wild type (domain or fragment, E. coli, UniProt P19934 296-421, looked up)
chain: DIFGELSSGKNAPKTGGGAKGNNASPAGSGNTKNNGASGADINNYAGQIKSAIESKFYDASSYAGKTCTLRIKLAPDGMLLDIKPEGGDPALCQAALAAAKLAKIPKPPSQAVYEVFKNAPLDFKP
notes: TolA, E. coli, 421-residue protein; C-terminal domain III, residues 296-421, soluble truncate lacking TolAI-II; also called TolA_(III296–421); WT TolAIII
B3: Colicin N translocation domain, ColN-T (ColN 1-90) (domain or fragment)
chain: MGSNGADNAHNNAFGGGKNPGIGNTSGAGSNGSASSNRGNSNGWSWSNKPHKNDGFHSDGSYHITFHGDNNSKPKPGGNSGNRGNNGDGA
notes: Colicin N, disordered N-terminal translocation (T) domain, residues 1-90; also called ColN-T_(1–90); T_(1–90)

Columns and labels:
Details in all cases: both partners purified
[1] = molecular target: B2; assay: SPR; TolAIII WT, D418P or K420P amine-coupled to a CM5 chip (~550 RU; 155 RU TolAIII for ColN-T kinetics); concentration series of analyte (ColN-T, G3p-N1 0.2-50 µM; G3p-N1 V44P up to 250 µM); Biacore X-100, 25 °C, HEPES-EP (10 mM HEPES pH 7.4, 150 mM NaCl, 3.4 mM EDTA, 0.05 % P20); blank surface subtracted; kinetic fits and steady-state affinity
TolB, wild type = molecular target: T1, TolB, wild type (UniProt P0A855 22-430); assay: SPR; TolAIII (645 RU) amine-coupled to CM5; WT TolB or TolB mutants passed over (5 µM in Fig. 4e); 1:1 Langmuir fits and steady-state affinity; HEPES-EP, 25 °C
T1 construct: TolB, 47 kDa two-domain soluble periplasmic protein; also called WT TolB

TolB DGSY-AGAA = molecular target: T2, TolB DGSY-AGAA (UniProt P0A855 22-430, DGSY-AGAA); assay: as above
T2 construct: TolB with DGSY (109-112) changed to AGAA

Binder | Kd [1] | koff [1] [s⁻¹] | kon [1] [M⁻¹ s⁻¹] | Kd (TolB, wild type) | koff (TolB, wild type) [s⁻¹] | kon (TolB, wild type) [M⁻¹ s⁻¹] | Kd (TolB DGSY-AGAA) | koff (TolB DGSY-AGAA) [s⁻¹] | kon (TolB DGSY-AGAA) [M⁻¹ s⁻¹]
B1 | 15 µM and 11.9 µM | 0.31 ± 0.002 | 20600 |  |  |  |  |  | 
B2 |  |  |  | 37 µM and 43.2 µM | 0.3 ± 0.004 | 8270 | 39 µM and 48.3 µM | 0.1 ± 0.002 | 2710
B3 | 1.8 ± 0.2 µM |  |  |  |  |  |  |  | 
